Data: paper PMC3777401

Tests used:
FLAG-CTCF-6xHis [1] = target: T1, FLAG-CTCF-6xHis (UniProt Q61164 1-736); test: EMSA
T1 sequence: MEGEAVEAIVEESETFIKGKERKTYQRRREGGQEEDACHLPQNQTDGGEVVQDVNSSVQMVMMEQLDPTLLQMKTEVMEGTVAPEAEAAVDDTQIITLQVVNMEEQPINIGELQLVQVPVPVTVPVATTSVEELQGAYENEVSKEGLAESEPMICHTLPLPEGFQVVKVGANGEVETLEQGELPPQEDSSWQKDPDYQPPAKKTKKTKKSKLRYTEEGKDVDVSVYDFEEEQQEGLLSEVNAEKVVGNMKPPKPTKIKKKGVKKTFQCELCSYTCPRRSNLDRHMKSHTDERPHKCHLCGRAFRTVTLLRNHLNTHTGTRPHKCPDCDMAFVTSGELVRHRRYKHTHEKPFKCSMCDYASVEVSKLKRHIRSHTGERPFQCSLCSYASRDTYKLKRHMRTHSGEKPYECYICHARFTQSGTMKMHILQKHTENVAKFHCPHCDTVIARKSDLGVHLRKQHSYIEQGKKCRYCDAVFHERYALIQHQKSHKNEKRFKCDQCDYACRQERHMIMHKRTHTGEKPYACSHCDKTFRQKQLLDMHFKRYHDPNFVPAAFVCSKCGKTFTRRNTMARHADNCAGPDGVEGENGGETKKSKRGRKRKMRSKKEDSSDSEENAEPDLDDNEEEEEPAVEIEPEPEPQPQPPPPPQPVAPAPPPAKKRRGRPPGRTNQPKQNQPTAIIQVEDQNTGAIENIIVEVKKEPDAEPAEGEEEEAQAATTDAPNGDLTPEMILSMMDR

FLAG-CTCF-6xHis [2] = target: T1, FLAG-CTCF-6xHis; test: competition

B1: RS14C (dsDNA)
DNA 1: CTATGCATTAGGTTTGGGTGTTATACCCGTGTAGGCCAGCAGAGGGTGTCGGATCCCAAGGAAACCAAGTTACAGACGCC
DNA 2: GGCGTCTGTAACTTGGTTTCCTTGGGATCCGACACCCTCTGCTGGCCTACACGGGTATAACACCCAAACCTAATGCATAG
B1: binds (FLAG-CTCF-6xHis [1]).

B2: P1 (dsDNA)
DNA 1: TTGTGGCCACTCCTCTTCTGGTCTCTCCGCCTTCAGCGCCGCGGATCAGTTAAAGGCGTGCAACGGCTTGCTCCAGCCAT
DNA 2: ATGGCTGGAGCAAGCCGTTGCACGCCTTTAACTGATCCGCGGCGCTGAAGGCGGAGAGACCAGAAGAGGAGTGGCCACAA
B2: no binding (FLAG-CTCF-6xHis [1]).

B3: P2 (dsDNA)
DNA 1: GAATGTGTCTAAGATGGCGGAAGTCATGTGACCTGCCCTCTAGTGGTTTCTTTCAGTGATTTTTTTTTTGGCGGGCTTTA
DNA 2: TAAAGCCCGCCAAAAAAAAAATCACTGAAAGAAACCACTAGAGGGCAGGTCACATGACTTCCGCCATCTTAGACACATTC
B3: binds (FLAG-CTCF-6xHis [2]).

B4: Xist_5' (dsDNA)
DNA 1: TTTGGCTTCAGATGCCTTGGAAAGATTCATGCTGCCACCTGCTGGTTTATTCAGTCTGTGTGCATCATTTATTTACTTGT
DNA 2: ACAAGTAAATAAATGATGCACACAGACTGAATAAACCAGCAGGTGGCAGCATGAATCTTTCCAAGGCATCTGAAGCCAAA
B4: binds (FLAG-CTCF-6xHis [1]).
